According to US11938104B1, “Compositions and methods for prevention and treatment of coronavirus and related disorders” (Abrexa Pharmaceuticals, Inc., priority 2021, dated 2024):

Tested on: Male SD rats
Test: Thromboembolic MCAO, J147+tPA expanded study, 72 h (Example 4)
Type: in vivo, rat
Method: Objective: To determine whether J147 can prevent tPA-associated brain hemorrhage and extend the treatment time window of tPA in a clinically relevant thromboembolic stroke model in rats. • J147 compound: Stock solution: 60 mg/ml DMSO, in 60 ul/vial, stored at −20° C. • Working solution: 3 mg/ml in 5% DMSO, 70% PEG200 and 25% normal saline, prepared prior to injection. • One vial stock solution was warmed at 37° C. and mixed with 1140 ul sterilized solution (PEG200: saline, 2.8:1). • Recombinant human tPA (Alteplase, 2.2 mg/vial): Reconstituted with 1.1 ml water (2 mg/ml). 10 mg/kg, 10% bonus injection, 90% 30 min. via mini pump.
Methods: Male SD rats (280-300 g) were subjected to thromboembolic middle cerebral artery occlusion (MCAO) and treated with saline at 4 hours, tPA (tissue-type plasminogen activator; 10 mg/kg, IV) at 4 hours, and combined J147 (10 mg/kg, IV) plus tPA at 4 hours after onset of ischemia. Bederson score was examined prior to the sacrifice at 72 h after stroke. Infarct volumes, brain hemorrhage, and animal mortality were measured.
Conclusion: J147 plus tPA combination treatment attenuates tPA-associated hemorrhage and alleviates brain damage after eMCAO. Consequently, the use of J147 in combination with tPA may extend the length of the therapeutic window for administration of tPA following an ischemic event and thereby increase the number of stroke patients that could benefit from use of tPA. • J147 compound: Stock solution: 60 mg/ml DMSO, in 60 ul/vial, stored at −20° C. • Working solution: 3 mg/ml in 5% DMSO, 70% PEG200 and 25% normal saline, prepared prior to injection. One vial stock solution was warmed at 37° C. and mixed with 1140 ul sterilized solution (PEG200: saline, 2.8:1). • Recombinant human tPA (Alteplase, 2.2 mg/vial): Reconstituted with 1.1 ml water (2 mg/ml). 10 mg/kg, 10% bonus injection, 90% 30 min. via mini pump.

[1] = tPA 10 mg/kg IV, J147 10 mg/kg IV, at 4 hours after onset of ischemia, 72 h after stroke

B1: tPA: Recombinant human tPA (Alteplase); tissue plasminogen activator, thrombolytic approved by the FDA for the treatment of stroke (protein, UniProt P00750 36-562, looked up)
Tissue-type plasminogen …: SYQVICRDEKTQMIYQQHQSWLRPVLRSNRVEYCWCNSGRAQCHSVPVKSCSEPRCFNGGTCQQALYFSDFVCQCPEGFAGKCCEIDTRATCYEDQGISYRGTWSTAESGAECTNWNSSALAQKPYSGRRPDAIRLGLGNHNYCRNPDRDSKPWCYVFKAGKYSSEFCSTPACSEGNSDCYFGNGSAYRGTHSLTESGASCLPWNSMILIGKVYTAQNPSAQALGLGKHNYCRNPDGDAKPWCHVLKNRRLTWEYCDVPSCSTCGLRQYSQPQFRIKGGLFADIASHPWQAAIFAKHRRSPGERFLCGGILISSCWILSAAHCFQERFPPHHLTVILGRTYRVVPGEEEQKFEVEKYIVHKEFDDDTYDNDIALLQLKSDSSRCAQESSVVRTVCLPPADLQLPDWTECELSGYGKHEALSPFYSERLKEAHVRLYPSSRCTSQHLLNRTVTDNMLCAGDTRSGGPQANLHDACQGDSGGPLVCLNDGRMTLVGIISWGLGCGQKDVPGVYTKVTNYLDWIRDNMRP
brain hemorrhage / hemorrhagic transformation [1]: worsened | brain infarction / infarct volume [1]: did not decrease | mortality rate (treatment at 4 h after onset of ischemia, log-rank test *p < 0.05 vs Saline or tPA alone group): 32% | Death (number of rats) (treatment at 4 h after onset of ischemia, tPA n = 22, J147 plus tPA n = 17): 7
